# Publication PMC9304679, “HDX-guided EPR spectroscopy to interrogate membrane protein dynamics” (STAR Protocols, 2022)
# B1: M tuberculosis MscL ion channel, wild type (natural protein)
# chain: MLKGFKEFLARGNIVDLAVAVVIGTAFTALVTKFTDSIITPLINRIGVNAQSDVGILRIGIGGGQTIDLNVLLSAAINFFLIAFAVYFLVVLPYNTLRKKGEVEQPGDTQVVLLTEIRDLLAQTNGDSPGRHGGRGTPSPTDGPRASTESQ
# notes: also called TbMscL; WT TbMscL
# Target: the molecule itself
# Experiment: SEC
protein,measurement,value
B1,stoichiometry N,5
